From US6838433B2, “IL-6 antagonist peptides” (Applied Research Systems ARS Holding N.V., priority 1998, dated 2005)

Biological target: T1, gp130-ICD (Homo sapiens, UniProt P40189)
T1 construct: in order to isolate the intracellular portion of human gp130; expressed in transfected cells; host or cells: Saccharomyces cerevisiae strain CG-1945; cDNA obtained by RT-PCR from HepG2 cells and cloned into pGADGH (also pAS2-1)
T1 sequence (P40189 642-918 limits assumed): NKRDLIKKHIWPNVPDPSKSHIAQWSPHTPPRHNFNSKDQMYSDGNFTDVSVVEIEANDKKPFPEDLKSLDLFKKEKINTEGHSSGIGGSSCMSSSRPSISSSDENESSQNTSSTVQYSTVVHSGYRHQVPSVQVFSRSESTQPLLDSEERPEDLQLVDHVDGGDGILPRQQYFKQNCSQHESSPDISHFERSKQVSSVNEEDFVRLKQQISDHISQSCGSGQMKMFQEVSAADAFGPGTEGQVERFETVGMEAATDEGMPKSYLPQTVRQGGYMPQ
Assay: Liquid β-galactosidase (LacZ) assay in yeast two-hybrid system
Assay type: cell-based
Details: combination of clone E and gp130-ICD in yeast cells; three independent experiments
Text: We have also performed liquid β-galactosidase assays to quantify transcriptional activity: as shown in the FIG. 5, in the presence of gp130-ICD/GAL4AD the fusion protein clone E/GAL4BD was able to produce a transcriptional activity of lacZ gene about 2 to 3 fold higher than in the absence of gp130-ICD/GAL4AD, thus confirming the interaction detected after the first selection.
Liquid β-Galactosidase Assay
We prepared 5-ml overnight culture in liquid SD selection medium appropriate for plasmids.
We transferred 2 ml of the culture to 8 ml of YPD and incubate at 30° C. for 3-5 hours until the cells are in the mid-log phase (O.D.600=0.5-0.8).
The culture was centrifuged at 14,000 rpm for 30 seconds: in the next step, we remove the supernatants, wash the cells with a volume of Z-buffer and resuspend the pellet in 900 μl of Z buffer.
Immediately, two or more freeze/thaw cycles were performed, placing the tubes in liquid nitrogen and in a 37° C. water bath for 0.5-1 minute. […]
The reaction was stopped by adding 0.4 ml of 1 M Na2CO3: we recorded the time needed to obtain the results and O.D.420 of the samples.
β-galactosidase units were calculated by this formula: β-galactosidase units=1,000×O.D.420/(t×V×O.D.600) […]

Clone E: peptide isolated by THS, homology group II, SEQ ID NO:6; homology with JAK1 JH4 domain (WGDNEWWRSEPHKMEL)
β-galactosidase (LacZ) activity in liquid assay: about 3 units/ml
